Assay results: patent publication US20260042862A1 (AGENCY FOR SCIENCE TECHNOLOGY AND RESEARCH, published 2026)

Legend:
[1] = target: T1, human GPC-3 on the surface of HepG2 and Hep3B cells (human, UniProt P51654 25-554); experiment: flow cytometry on HepG2 (GPC-3 Positive) cells, mean-APC
T1 construct: whole, on cells; Endogenous GPC-3 of human hepatoma cell lines; also called GPC-3 expressing HepG2 cells; GPC-3^High HepG2
Experimental: (§1) The ability of these anti-GPC-3 bi-specific T cell-engaging antibodies to specifically recognize and bind to both GPC-3 and human CD3 molecules on cell surface was measured using HepG2 (GPC-3^Positive), SK-Hep1 (GPC-3^Negative), and human T cells (CD3^Positive) cells.
(§2) Briefly, HepG2 (GPC-3^Positive), SK-Hep1 (GPC-3^Negative) and human T cells (CD3^Positive) were seeded in cell suspension at 100000 per well in 96-well round-bottom plate prior to incubation with different concentrations of anti-GPC-3 bi-specific T cell-engaging antibodies. Binding was measured by flow cytometry using a secondary labelled antibody. In this assay, all 5 anti-GPC-3 bi-specific T-cell engaging antibodies bound strongly to the GPC-3 expressing cell HepG2 (FIG. 8B) as well as human T cells expressing CD3 (FIG. 8D).

[2] = target: T2, human CD3 on human T cells (human, UniProt P07766 23-207); experiment: flow cytometry on human T cells (CD3 Positive), % positive cells
T2 construct: whole, on cells; CD3 is a complex of several chains on T cells; also called CD3^Positive human T cells
Experimental: as §1, §2

[3] = target: T1, human GPC-3 on the surface of HepG2 and …; experiment: flow cytometry on HepG2 (GPC-3 Positive) cells, % positive cells
Experimental: as §1, §2

[4] = target: T3, recombinant human GPC-3 protein (human, UniProt P51654 25-559, limits assumed); experiment: binding ELISA with biotin-hGPC-3, EC50 calculated from the curves of FIG. 1A to 1C
T3 construct: also called glypican-3; recombinant GPC-3 protein

[5] = target: T3, recombinant human GPC-3 protein; experiment: SPR, Biacore T200
Experimental: Affinity of 24 anti-GPC-3 IgG₁ antibodies was measured via Surface Plasmon Resonance (SPR) analysis using Biacore™ T200 system and shown in Table E3 (below).

[6] = target: T1, human GPC-3 on the surface of HepG2 and …; experiment: flow cytometry on HepG2 (GPC-3 High) cells, MFI against antibody (pM)
Experimental: (§3) The ability of anti-GPC-3 antibodies to specifically recognize and bind GPC-3 on the surface of cells was measured using HepG2 (GPC-3^High), Hep3B (GPC-3^Medium) and SK-Hep1 (GPC-3^Negative) cells.
(§4) Briefly, HepG2 (GPC-3^High), Hep3B (GPC-3^Medium) and SK-Hep1 (GPC-3^Negative) cells were seeded in cell suspension at 50000 per well in 96-well round-bottom plate before incubation with different concentrations of anti-GPC-3 antibodies. Binding was measured by flow cytometry using a secondary labelled antibody.

[7] = target: T1, human GPC-3 on the surface of HepG2 and …; experiment: flow cytometry on Hep3B (GPC-3 Medium) cells, MFI against antibody (pM)
Experimental: as §3, §4

[8] = target: T1, human GPC-3 on the surface of HepG2 and …; experiment: flow cytometry on HepG2 (GPC-3 High) cells, MFI against antibody (pM); remark: listed apart in the source
[9] = target: T3, recombinant human GPC-3 protein; experiment: binding ELISA with biotin-hGPC-3, EC50 calculated from the curves of FIG. 1A to 1C; footnote: * Average value from 3 batches
[10] = target: T3, recombinant human GPC-3 protein; experiment: binding ELISA, absorbance 450nm-570nm against Biotin-hGPC-3 (nM), batch of FIG. 1B
[11] = target: T3, recombinant human GPC-3 protein; experiment: binding ELISA, absorbance 450nm-570nm against Biotin-hGPC-3 (nM), batch of FIG. 1C
[12] = target: T3, recombinant human GPC-3 protein; experiment: binding ELISA, absorbance 450nm-570nm against Biotin-hGPC-3 (nM), batch of FIG. 1A
[13] = target: T4, recombinant mouse GPC-3 protein (mouse, UniProt Q8CFZ4 25-558, limits assumed, biotinylated (sites not given)); experiment: cross-reactivity binding ELISA with biotinylated recombinant GPC-3, absorbance 450nm-570nm
T4 construct: Biotinylated for the cross-reactivity ELISA; also called mouse homolog of GPC-3 protein
T4 sequence (Q8CFZ4 25-558 limits assumed): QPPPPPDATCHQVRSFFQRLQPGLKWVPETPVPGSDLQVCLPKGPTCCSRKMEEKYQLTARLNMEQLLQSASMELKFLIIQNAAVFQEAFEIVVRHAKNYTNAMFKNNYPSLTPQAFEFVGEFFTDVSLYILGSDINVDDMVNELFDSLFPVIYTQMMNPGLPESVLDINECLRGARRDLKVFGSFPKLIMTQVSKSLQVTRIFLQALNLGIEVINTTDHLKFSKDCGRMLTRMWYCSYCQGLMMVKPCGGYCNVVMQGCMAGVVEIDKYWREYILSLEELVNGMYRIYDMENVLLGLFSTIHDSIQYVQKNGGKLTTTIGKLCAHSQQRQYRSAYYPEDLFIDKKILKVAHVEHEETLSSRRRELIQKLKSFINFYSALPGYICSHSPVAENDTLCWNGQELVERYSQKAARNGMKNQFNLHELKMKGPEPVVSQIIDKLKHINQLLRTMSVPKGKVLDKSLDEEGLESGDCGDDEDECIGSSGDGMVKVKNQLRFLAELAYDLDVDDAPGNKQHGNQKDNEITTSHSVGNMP

[14] = target: T5, mouse GPC-3 on the surface of transduced cells (Hepa1-6-mGPC-3, MC38-mGPC-3) (mouse, UniProt Q8CFZ4 25-553); experiment: flow cytometry histograms, 20 nM antibody, Hepa1-6-mGPC-3 against parental Hepa1-6 cells
T5 construct: whole, on cells
T5 sequence (Q8CFZ4 25-553 limits assumed): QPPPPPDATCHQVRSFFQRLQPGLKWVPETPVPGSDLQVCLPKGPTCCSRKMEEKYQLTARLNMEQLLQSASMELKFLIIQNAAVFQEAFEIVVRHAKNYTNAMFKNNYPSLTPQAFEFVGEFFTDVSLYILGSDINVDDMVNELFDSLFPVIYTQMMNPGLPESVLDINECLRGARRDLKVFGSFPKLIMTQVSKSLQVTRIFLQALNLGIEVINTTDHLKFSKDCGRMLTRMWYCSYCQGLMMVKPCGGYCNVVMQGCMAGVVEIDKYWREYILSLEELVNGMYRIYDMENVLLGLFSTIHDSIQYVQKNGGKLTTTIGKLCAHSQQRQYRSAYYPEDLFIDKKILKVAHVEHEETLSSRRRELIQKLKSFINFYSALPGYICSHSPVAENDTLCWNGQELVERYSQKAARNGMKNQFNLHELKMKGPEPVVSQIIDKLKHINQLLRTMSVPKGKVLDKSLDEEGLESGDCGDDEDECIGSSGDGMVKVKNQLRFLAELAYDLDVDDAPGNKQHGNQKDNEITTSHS

B1: anti-GPC-3 bi-specific T cell-engaging antibody clone 1C4 (bispecific antibody)
VH: QVQLVQSGGGLVKPGRSLRLSCTASGFTFGDYAMHWVRQAPGKGLEWVAVISYDGSNKYYADSVKGRFTISRDNSKNTLYLQMNSLRAEDTAVYYCARDYGDYYRPYGMDVWGQGTT
VL: DIQMTQSPSTLSASVGDRVTITCRASQSISKWLAWYQHKPGKAPKVLIYKASTLQSGVPSRFSGSGSGTEFTLTISSLQPEDFATYYCQQLNSYPLTFGGGTK
scFv: DVQLVQSGAEVKKPGASVKVSCKASGYTFTRYTMHWVRQAPGQGLEWIGYINPSRGYTNYADSVKGRFTITTDKSTSTAYMELSSLRSEDTATYYCARYYDDHYCLDYWGQGTTVTVSSGEGTSTGSGGSGGSGGADDIVLTQSPATLSLSPGERATLSCRASQSVSYMNWYQQKPGKAPKRWIYDTSKVASGVPARFSGSGSGTDYSLTINSLEAEDAATYYCQQWSSNPLTFGGGTKVEIK
notes: The Fab region of one arm of the IgG is replaced by the anti-CD3 scFv; knob-in-hole and LALA mutations in the Fc; also called 1C4 bi-specific
- EC50 (read off the curve) [1]: ~700 nM
- EC50 (read off the curve) [2]: ~200 nM
- EC50 (read off the curve) [3]: ~10 nM

B2: anti-GPC-3 bi-specific T cell-engaging antibody clone 2B5 (bispecific antibody)
VH: QVQLQESGGGVVQPGRSLRLSCAASGFTFSSYAMHWVRQAPGKGLEWVAVISYDGSNKYYADSVKGRFTISRDNSKNTLYLQMNSLRAEDTAVYYCAKEGTYYYDSSGYWDYYYGMDVWGQGTT
VL: DVVMTQSPLSLPVTPGEPASISCRSSQSLLDSDGYNFLDWYVQKPGQSPQRLIYLGSIRASGVPDRFSGSGSGTDFTLKISRVEADDVGVYYCMQALQTPWTFGQGTK
scFv: B1 scFv
notes: The Fab region of one arm of the IgG is replaced by the anti-CD3 scFv; knob-in-hole and LALA mutations in the Fc; also called 2B5 bi-specific
- EC50 (read off the curve) [2]: ~400 nM
- EC50 (read off the curve) [3]: ~100 nM

B3: anti-GPC-3 bi-specific T cell-engaging antibody clone 1D2 (bispecific antibody)
VH: EVQLVQSGAEVKKPGSSVKVSCKASGGTFSSYAISWVRQAPGQGLEWMGGIIPIFGTANYAQKFQGRVTITADKSTSTAYMELSSLRSEDTAVYYCAREWQQQLVPLGYMDVWGKGTT
VL: ETTLTQSPGTLSLSPGERATLSCRASHSVSSNFLAWYQQKPGQAPRLLIYAASSRTTGVPDRFSGSGSGTDFTLTISRLEPEDSAVYYCQQYGYSPLYTFGQGTK
scFv: B1 scFv
notes: The Fab region of one arm of the IgG is replaced by the anti-CD3 scFv; knob-in-hole and LALA mutations in the Fc; also called 1D2 bi-specific
- EC50 (read off the curve) [2]: ~300 nM
- EC50 (read off the curve) [3]: ~70 nM

B4: anti-GPC-3 bi-specific T cell-engaging antibody clone 5C4 (bispecific antibody)
VH: QVQLQESGGGLVKPGGSLRLSCAASGFTFSSYSMNWVRQAPGKGLEWVAVISYDGSNKYYADSVKGRFTISRDNSKNTLYLQMNSLRTEDTAVYYCARGAGPFTGFNWFDPWGQGTL
VL: EIVLTQSPATLSVSPGERATLSCRASQSVDSYLAWYQQKPGQAPRLLIYSASTRATGIPARFSGTGSGTEFTLTISSLQSEDFAVYYCQQYKRWPTWTFGLGTR
scFv: B1 scFv
notes: The Fab region of one arm of the IgG is replaced by the anti-CD3 scFv; knob-in-hole and LALA mutations in the Fc; also called 5C4 bi-specific
- EC50 (read off the curve) [1]: ~800 nM
- EC50 (read off the curve) [2]: ~100 nM
- EC50 (read off the curve) [3]: ~20 nM

B5: anti-GPC-3 bi-specific T cell-engaging antibody clone 4H1 (bispecific antibody)
VH: EVQLVQSGGGVVQPGRSLRLSCAASGFTFSSYAMHWVRQAPGKGLEWVAVISYDGSNKYYADSVKGRFTISRDNSKNTLYLQMNSLRAEDTAVYYCARAPGLEDYWGQGTL
VL: DIQMTQSPSSLSASVGDRVTITCRASQSISSYLNWYQQKPGTAPKLLIYAASSSLQSGVPSRFSGSGSGTDFALTISSLQPEDFATYYCLQDYNYPLTFGGGTK
scFv: B1 scFv
notes: The Fab region of one arm of the IgG is replaced by the anti-CD3 scFv; knob-in-hole and LALA mutations in the Fc; also called 4H1 bi-specific
- EC50 (read off the curve) [2]: ~300 nM
- EC50 (read off the curve) [3]: ~100 nM

B6: anti-GPC-3 IgG1 clone 5C4 (antibody, V domains shown)
VH: B4 VH
VL: B4 VL
notes: Tested as IgG1; also called monoclonal antibody 5C4
- EC50 [4]: 0.348 nM
- Kd [5]: 9.02 nM
- koff [5]: 0.00161 s⁻¹
- kon [5]: 179000 M⁻¹ s⁻¹
- EC50 (read off the curve) [6]: ~0.1 nM
- EC50 (read off the curve) [7]: ~0.04 nM

B7: humanized GC33 IgG1 (antibody, V domains shown)
VH: QVQLVESGAEVKKPGASVKVSCKASGYTFTDYEMHWVRQAPGQGLEWMGALDPKTGDTAYSQKFKGRVTITADESTSTAYMELSSLRSEDTAVYYCARFYSYTYWGQGTLVTVSS
VL: DVVMTQSPLSLPVTPGEPASISCRSSQSLVHSNGNTYLHWYLQKPGQSPQLLIYKVSNRFSGVPDRFSGSGSGTDFTLKISRVEAEDVGVYYCSQNTHVPPTFGQGTKLEIK
- EC50 (read off the curve) [8]: ~0.8 nM
- EC50 (read off the curve) [6]: ~0.7 nM
- EC50 [9]: 0.803 nM
- EC50 (read off the curve) [10]: ~0.9 nM
- EC50 (read off the curve) [11]: ~1 nM
- EC50 (read off the curve) [12]: ~0.4 nM

B8: anti-GPC-3 IgG1 clone 1D8 (antibody, V domains shown)
VH: QVQLVQSGAEVKKPGASVKVSCKASGYTFTSYGISWVRQAPGQGLEWMGWISAYNGNTNYAQKLQGRVTMTTDTSTSTAYMELRSLRSDDTAVYYCARDGGLIAAAFGYYYYGMDVWGQGTT
VL: EIVLTQSPGTLSLSPGERATLSCRASQSVSSYLAWYQQKPGQAPRLLIYGASSRATGIPDRFSGSGSGTDFTLTISRLEPEDFAVYYCQQYERPPTFGGGTK
notes: Tested as IgG1; also called monoclonal antibody 1D8
- EC50 [4]: 9.01 nM
- Kd [5]: 13.7 nM
- koff [5]: 0.0053 s⁻¹
- kon [5]: 388000 M⁻¹ s⁻¹
- binding result [13]: no binding
- binding result [14]: no binding (tested: 20 nM)
